Results published in paper PMC3086721 (Biochemical and biophysical research communications, 2011).
Where two headings read alike, the source gives them in different places.

Assays:
Wild-type ubiquitin [1] = molecular target: T1, Wild-type ubiquitin (UniProt P0CG48 1-76); assay: NMR titration
Wild-type ubiquitin [2] = molecular target: T1, Wild-type ubiquitin; assay: NMR titration; remark: listed apart in the source

Kd (Wild-type ubiquitin [1]) [µM]	Kd (Wild-type ubiquitin [2]) [µM]	Binder
~1000		Full-length E2-25K (enzyme, UniProt P61086 1-200, looked up) MANIAVQRIKREFKEVLKSEETSKNQIKVDLVDENFTELRGEIAGPPDTPYEGGRYQLEIKIPETYPFNPPKVRFITKIWHPNISSVTGAICLDILKDQWAAAMTLRTVLLSLQALLAAAEPDDPQDAVVANQYKQNPEMFKQTARLWAHVYAGAPVSSPEYTKKIENLCAMGFDRNAVIVALSSKSWDVETATELLLSN
	~1200	GAPVSSPEYTKKIENLCAMGFDRNAVIVALSSKSWDVETATELLLSN (domain or fragment, UniProt P61086 154-200, looked up) [E2-25K UBA domain (residues G154-N200)]
